In IntAct's records for PubMed 16002700:

B1: Natural killer cell receptor 2B4 (Homo sapiens), Q9BZW8 (parent)
chain: MLGQVVTLILLLLLKVYQGKGCQGSADHVVSISGVPLQLQPNSIQTKVDSIAWKKLLPSQNGFHHILKWENGSLPSNTSNDRFSFIVKNLSLLIKAAQQQDSGLYCLEVTSISGKVQTATFQVFVFESLLPDKVEKPRLQGQGKILDRGRCQVALSCLVSRDGNVSYAWYRGSKLIQTAGNLTYLDEEVDINGTHTYTCNVSNPVSWESHTLNLTQDCQNAHQEFRFWPFLVIIVILSALFLGTLACFCVWRRKRKEKQSETSPKEFLTIYEDVKDLKTRRNHEQEQTFPGGGSTIYSMIQSQSSAPTSQEPAYTLYSLIQPSRKSGSRKRNHSPSFNSTIYEVIGKSQPKAQNPARLSRKELENFDVYS

Variants of: B1
Conditions: with cd48_human CD48, P09326
Sequence of cd48_human CD48, P09326 (P09326 whole entry): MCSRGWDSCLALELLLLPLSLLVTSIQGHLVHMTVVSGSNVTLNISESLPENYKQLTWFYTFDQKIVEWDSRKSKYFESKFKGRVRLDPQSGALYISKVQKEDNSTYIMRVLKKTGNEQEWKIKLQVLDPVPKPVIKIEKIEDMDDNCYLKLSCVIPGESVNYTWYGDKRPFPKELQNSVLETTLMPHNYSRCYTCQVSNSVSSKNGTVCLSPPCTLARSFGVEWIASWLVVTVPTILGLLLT

**Q.** How did the “effect of a mutation on the interaction” value turn out when K68A was run?
**A.** decreasing interaction

**Q.** K68A;E70A was tested. Which “effect of a mutation on the interaction” value did it give?
**A.** disrupting interaction

**Q.** How did the “effect of a mutation on the interaction” value turn out when E70A was run?
**A.** decreasing interaction
